From patent publication US20260146107A1 (ALLIGATOR BIOSCIENCE, published 2026)
Substitutions are numbered along the chain they refer to.

Key:
[1] = biological target: T1, human CEACAM5, recombinant (R&D Systems #4128-CM-050) (human, UniProt P06731 35-685); experiment: ELISA, antigen coated at 0.5 µg/mL, bsAb titrated, anti-human kappa-HRP, luminescence
T1 construct: Bought; coated in ELISA and used as monomeric analyte in Octet; also called hCEACAM-5; Human CEACAM5-His; not shown: His tag
T1 sequence (looked up): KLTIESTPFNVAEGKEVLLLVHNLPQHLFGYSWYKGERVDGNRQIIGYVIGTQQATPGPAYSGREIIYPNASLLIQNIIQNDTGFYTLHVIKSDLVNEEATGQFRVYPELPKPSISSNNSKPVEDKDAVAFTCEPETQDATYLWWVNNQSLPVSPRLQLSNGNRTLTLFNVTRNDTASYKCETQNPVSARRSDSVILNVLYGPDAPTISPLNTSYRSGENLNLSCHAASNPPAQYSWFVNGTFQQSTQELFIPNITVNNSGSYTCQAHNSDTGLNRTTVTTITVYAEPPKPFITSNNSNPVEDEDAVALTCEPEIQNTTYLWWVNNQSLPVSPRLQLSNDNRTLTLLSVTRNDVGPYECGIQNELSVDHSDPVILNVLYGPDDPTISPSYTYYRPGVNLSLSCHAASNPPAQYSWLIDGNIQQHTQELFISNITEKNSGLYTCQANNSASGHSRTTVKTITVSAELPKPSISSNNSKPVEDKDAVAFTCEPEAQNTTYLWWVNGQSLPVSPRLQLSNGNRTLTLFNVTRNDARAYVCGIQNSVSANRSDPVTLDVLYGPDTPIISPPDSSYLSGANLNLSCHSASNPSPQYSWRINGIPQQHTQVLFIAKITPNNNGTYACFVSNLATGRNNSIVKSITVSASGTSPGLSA
Description: (§1) 96-well plates were coated with 0.5 μg/mL antigen, hCEACAM-1 (2244-CM-050, R&D Systems), hCEACAM-5 (4128-CM-050, R&D Systems), hCEACAM-6 (3934-CM-050, R&D Systems) or CEACAM-8 (9639-CM-050, R&D Systems) in PBS over night at 4° C. After washing in PBS/0.05% Tween 20 (PBST), the plates were blocked with PBST, 2% BSA for at least 30 minutes at room temperature before a second round of washing. RUBY bsAbs, diluted in PBST, 0.5% BSA, were then added and allowed to bind for at least 1 hour at room temperature. […] Finally, a final round of washing was performed and bound complexes detected using SuperSignal Pico Luminescent as substrate and luminescence signals were measured using Fluostar Optima.

[2] = biological target: T1, human CEACAM5, recombinant (R&D Systems …); experiment: Octet BLI, captured bsAb, monomeric CEACAM5 in solution, 1:1 fit
Description: (§2) Kinetic measurements were performed in the Octet RED96 platform using several different setups. […] Monomeric human CD40-His-Avi tag (Acro Biosystems #CD0-H5228), monomeric Human CEACAM5-His (R&D Systems #4128-CM-050) or monomeric Cynomolgus CEACAM5-His (Sino Biological #90891-C08H) were ½ serially diluted in 1× kinetic buffer (Sartorius) starting at 500 nM or 100 nM. […] Binding kinetics was studied in 1× kinetic buffer where association was allowed for 100 sec, 300 sec or 600 sec followed by dissociation for 100 sec, 300 sec or 3600 sec. Sensor tips were regenerated with 10 mM Glycine pH 1.7. Data generated were referenced by subtracting blank or parallel buffer blank, the baseline was aligned to the y-axis, inter-step correction by alignment against dissociation was performed and the data was smoothed by Savitzky-Golay filter in the data analysis software (v9.0.0.14). The processed data was fitted using a 1:1 Langmuir binding model with R² or X² as a measurement of fitting accuracy.
Association was measured for 100 sec and dissociation was measured for 100 sec.

[3] = biological target: T2, biotinylated human CD40-mouse Fc (Ancell #504-030) (human, UniProt P25942 21-193, biotinylated (site not stated)); experiment: Octet BLI, captured CD40mFc-biotin, bsAb in solution, 1:1 fit
T2 construct: Bought; also called hCD40-muIg; CD40mFc-biotin; not shown: mouse Ig Fc
T2 sequence (P25942 21-193): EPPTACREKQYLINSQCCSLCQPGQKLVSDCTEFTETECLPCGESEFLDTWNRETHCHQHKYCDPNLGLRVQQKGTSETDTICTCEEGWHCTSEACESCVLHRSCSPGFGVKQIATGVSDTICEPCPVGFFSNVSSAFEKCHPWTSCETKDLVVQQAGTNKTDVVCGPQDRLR
Description: as §2
TABLE 12 Summary of kinetic profiles measured in Octet. Bispecific antibodies in solution (25-0.8 nM, 10-2 or 5-0.7 nM.) interacting with captured CD40mFc-biotin. Association was measured for 300 sec or 600 sec and dissociation was measured for 300 sec or 3600 sec

[4] = biological target: T1, human CEACAM5, recombinant (R&D Systems …); experiment: dual-target ELISA: hCEACAM-5 coated, bsAb titrated, detected with biotinylated hCD40-muIg and streptavidin-HRP, luminescence; signal needs both targets bound
Description: as §1

[5] = biological target: T1, human CEACAM5, recombinant (R&D Systems …); experiment: Octet BLI, captured bsAb, soluble antigen, 1:1 fit
Description: as §2
Association was measured for 100 sec and dissociation for 300 sec.

[6] = biological target: human CD40 expressed on cells (CD40 reporter cells, HEK Blue CD40L cells, primary B cells, tumour APCs) (human, UniProt P25942 21-277); experiment: cell-based or functional assay
Chain of human CD40 expressed on cells (CD40 reporter cells, HEK Blue CD40L cells, primary B cells, tumour APCs) (P25942 21-277): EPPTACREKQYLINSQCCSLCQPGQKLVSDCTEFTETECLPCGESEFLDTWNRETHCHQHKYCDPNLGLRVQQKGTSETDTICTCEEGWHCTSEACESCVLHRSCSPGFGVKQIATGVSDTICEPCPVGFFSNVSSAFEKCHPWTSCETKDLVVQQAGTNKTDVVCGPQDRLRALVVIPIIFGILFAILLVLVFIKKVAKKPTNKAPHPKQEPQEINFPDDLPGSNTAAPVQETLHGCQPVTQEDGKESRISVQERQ

[7] = biological target: T3, biotinylated human CEACAM5-His (Acro Biosystems #CE5-H82E0) (human, UniProt P06731 35-685, biotinylated (site not stated)); experiment: Octet BLI, captured CEACAM5-biotin, bsAb in solution, 1:1 fit
T3 construct: also called CEACAM5-biotin; captured human CEACAM5-biotin; not shown: His tag
T3 sequence (looked up): T1 sequence (looked up)
Description: as §2
Association was measured for 100 sec and dissociation measured for 100 sec.

B1: Multi48 (bispecific antibody)
heavy 1: not shown
light: DIQMTQSPSSLSASVGDRVTITCRASQSISSYLNWYQEKPGKAPKLLIYAASSLQSGVPSRFSGSGSGTDFTLTISSLQPEDFATYYCQQYGRNPPTFGQGTKLEIKRTVAAPSVFIFPPSDEQLKSGTASVVCYLNNFYPREAKVQWKVDNALQSGNSQESVTEQDSKDSTYSLWSTLTLSKADYEKHKVYACEVTHQGLSSPVTKSFNRGEC
heavy 2: EVQLLESGGGLVQPGGSLRLSCAASGFTFGDHAMSWVREAPGKGLEWVSAISGYGHSTGYADSVKGRFTISRDNSKNTLYLQMNSLRAEDTAVYYCARNHYRVGLDYWGQGTLVTVSSASTKGPSVFPLAPSSKSTSGGTAALGCLVKDYFPEPVTVSWNSGALTSGVHTFPAVLQSSGLYSLTSVVEVPSSSLGTQTYICNVNHKPSNTKVDKKVEPKSC
notes: Optimised RUBY format, CD40xCEACAM5
For B1, the “EC50 (read off the curve)” value [1] was roughly 3 nM, the Kd [2] was less than 0.001 nM and the koff [2] was less than 1e-07 s⁻¹. It also gave a kon [2] of 24000 M⁻¹ s⁻¹.

B2: Multi49 (bispecific antibody)
heavy 1: not shown
light: B1 light
heavy 2: EVQLLESGGGLVQPGGSLRLSCAASGFTFYDHAMSWVREAPGKGLEWVSAISGSYGSTGYADSVKGRFTISRDNSKNTLYLQMNSLRAEDTAVYYCARWGGWAGDIDYWGQGTLVTVSSASTKGPSVFPLAPSSKSTSGGTAALGCLVKDYFPEPVTVSWNSGALTSGVHTFPAVLQSSGLYSLTSVVEVPSSSLGTQTYICNVNHKPSNTKVDKKVEPKSC
notes: as for B1
B2 was tested, and the “EC50 (read off the curve)” value [1] was roughly 3 nM, the Kd [2] was less than 0.001 nM and the koff [2] was less than 1e-07 s⁻¹. It also gave a kon [2] of 28000 M⁻¹ s⁻¹.

B3: Multi38 (bispecific antibody)
heavy 1: not shown
light: not shown
heavy 2: B1 heavy 2
notes: Optimised RUBY format, CD40xCEACAM5 (Fab8); also called Muli38
In the case of B3, the “EC50 (read off the curve)” value [1] is reported as roughly 2 nM.

B4: AC_05293 (bispecific antibody)
heavy 1: not shown
light: B1 light
heavy 2: EVQLLEQSGAELVRPGTSVKISCKASGYAFTNYWLGWVKERPGHGLEWIGDIFPGSGNIHYNEKFKGKATLTADKSSSTAYMQLSSLTFEDSAVYFCARLRNWDEPMDYWGQGTTVTVSSASTKGPSVFPLAPSSKSTSGGTAALGCLVKDYFPEPVTVSWNSGALTSGVHTFPAVLQSSGLYSLSSVVEVPSSSLGTQTYICNVNHKPSNTKVDKKVEPKSC
B4 gave a Kd [3] of 76 nM, a koff [3] of 0.00062 s⁻¹ and a kon [3] of 8300 M⁻¹ s⁻¹.

B5: AC_05300 (bispecific antibody)
heavy 1: not shown
light: ELVMTQSPSSLTVTAGEKVTMSCKSSQSLLNSGNQKNYLTWYQEKPGQPPKLLIYWASTRESGVPDRFTGSGSGTDFTLTISSVQAEDLAVYYCQNDYSYPLTFGAGTKLEIKRTVAAPSVFIFPPSDEQLKSGTASVVCYLNNFYPREAKVQWKVDNALQSGNSQESVTEQDSKDSTYSLWSTLTLSKADYEKHKVYACEVTHQGLSSPVTKSFNRGEC
heavy 2: EVQLLESGGGLVQPGGSLRLSCAASGFTFSSYAMSWVREAPGKGLEWVSGIGSYGGGTYYADSVKGRFTISRDNSKNTLYLQMNSLRAEDTAVYYCARYVNFGMDYWGQGTLVTVSSASTKGPSVFPLAPSSKSTSGGTAALGCLVKDYFPEPVTVSWNSGALTSGVHTFPAVLQSSGLYSLSSVVEVPSSSLGTQTYICNVNHKPSNTKVDKKVEPKSC
notes: as AC_05293
With B5 the Kd [3] was 8.5 nM, the koff [3] was 0.0046 s⁻¹ and the kon [3] was 540000 M⁻¹ s⁻¹.

B6: AC_05330 (bispecific antibody)
heavy 1: not shown
light: not shown
heavy 2: EVQLLESGGGLVQPGGSLRLSCAASGFTFSSYAMSWVREAPGKGLEWVSAISGSGGSTYYADSVKGRFTISRDNSKNTLYLQMNSLRAEDTAVYYCARYYGGYYSAWMDYWGQGTLVTVSSASTKGPSVFPLAPSSKSTSGGTAALGCLVKDYFPEPVTVSWNSGALTSGVHTFPAVLQSSGLYSLSSVVEVPSSSLGTQTYICNVNHKPSNTKVDKKVEPKSC
notes: as AC_05293
With B6 the Kd [3] was 0.45 nM, the koff [3] was 1.6e-05 s⁻¹ and the kon [3] was 35000 M⁻¹ s⁻¹.

B7: AC_05339 (bispecific antibody)
heavy 1: not shown
light: DIQMTQSPSSLSASVGDRVTITCRASQSISSYLNWYQEKPGKAPKLLIYAASSLQSGVPSRFSGSGSGTDFTLTISSLQPEDFATYYCQQAGNPHTFGQGTKLEIKRTVAAPSVFIFPPSDEQLKSGTASVVCYLNNFYPREAKVQWKVDNALQSGNSQESVTEQDSKDSTYSLWSTLTLSKADYEKHKVYACEVTHQGLSSPVTKSFNRGEC
heavy 2: EVQLLESGGGLVQPGGSLRLSCAASGFTFSTYGMHWVREAPGKGLEWLSYISGGSSYIFYADSVRGRFTISRDNSENALYLQMNSLRAEDTAVYYCARILRGGSGMDLWGQGTLVTVSSASTKGPSVFPLAPSSKSTSGGTAALGCLVKDYFPEPVTVSWNSGALTSGVHTFPAVLQSSGLYSLSSVVEVPSSSLGTQTYICNVNHKPSNTKVDKKVEPKSC
notes: RUBY format, CEACAM5xCD40; also called AC_5339
Work on B7 yielded a Kd [2] of 1.8 nM, a koff [2] of 0.00042 s⁻¹ and a kon [2] of 240000 M⁻¹ s⁻¹. The “EC50 (read off the curve)” value [4] was roughly 0.3 nM, the Kd [5] was less than 1 pM and the koff [5] was less than 1e-07 s⁻¹. The kon [5] was 520000 M⁻¹ s⁻¹, the “EC50 of SEAP release, HEK Blue CD40L reporter cells, bsAb crosslinked to CHO-CEACAM5 cells, 0 Raji sink cells/well” value [6] was 0.03 nM and the “EC50 of SEAP release, same assay, 10 000 Raji sink cells/well” value [6] was 0.05 nM. For the same binder, the “EC50 of SEAP release, same assay, 30 000 Raji sink cells/well” value [6] was 0.08 nM and the “EC50 of SEAP release, same assay, 90 000 Raji sink cells/well” value [6] was 0.23 nM.

B8: Multi44 (bispecific antibody)
heavy 1: not shown
light: B7 light with A91W, N93Y, P94L, H95L
heavy 2: B7 heavy 2 with R65K, E76K, A78T, S185T
notes: Optimised RUBY format, CEACAM5xCD40
For B8, the “EC50 (read off the curve)” value [1] was roughly 0.5 nM, the Kd [2] was 13 nM and the koff [2] was 0.0023 s⁻¹. The kon [2] was 180000 M⁻¹ s⁻¹, the “EC50 (read off the curve)” value [4] was roughly 0.8 nM and the Kd [7] was less than 1 pM. For the same binder, the koff [7] was less than 1e-07 s⁻¹, the kon [7] was 150000 M⁻¹ s⁻¹ and the “EC50 of SEAP release, HEK Blue CD40L reporter cells, bsAb crosslinked to CHO-CEACAM5 cells, 0 Raji sink cells/well” value [6] was 0.02 nM. For the same binder, the “EC50 of SEAP release, same assay, 10 000 Raji sink cells/well” value [6] was 0.05 nM, the “EC50 of SEAP release, same assay, 30 000 Raji sink cells/well” value [6] was 0.08 nM and the “EC50 of SEAP release, same assay, 90 000 Raji sink cells/well” value [6] was 0.16 nM.
